From article PMC9604523, “Discovery of New Phenylacetone Monooxygenase Variants for the Development of Substituted Indigoids through Biocatalysis” (International Journal of Molecular Sciences, 2022)
Where a chain is given by its changes, count along the chain named. Names and notes keep the numbering of the source.

B1: PAMO (phenylacetone monooxygenase; PAMOWT, PAMOHPCD, PAMOHPED) (Thermobifida fusca YX) (protein)
chain: MAGQTTVDSRRQPPEEVDVLVVGAGFSGLYALYRLRELGRSVHVIETAGDVGGVWYWNRYPGARCDIESIEYCYSFSEEVLQEWNWTERYASQPEILRYINFVADKFDLRSGITFHTTVTAAAFDEATNTWTVDTNHGDRIRARYLIMASGQLSVPQLPNFPGLKDFAGNLYHTGNWPHEPVDFSGQRVGVIGTGSSGIQVSPQIAKQAAELFVFQRTPHFAVPARNAPLDPEFLADLKKRYAEFREESRNTPGGTHRYQGPKSALEVSDEELVETLERYWQEGGPDILAAYRDILRDRDANERVAEFIRNKIRNTVRDPEVAERLVPKGYPFGTKRLILEIDYYEMFNRDNVHLVDTLSAPIETITPRGVRTSEREYELDSLVLATGFDALTGALFKIDIRGVGNVALKEKWAAGPRTYLGLSTAGFPNLFFIAGPGSPSALSNMLVSIEQHVEWVTDHIAYMFKNGLTRSEAVLEKEDEWVEHVNEIADETLYPMTASWYTGANVPGKPRVFMLYVGGFHRYRQICDEVAAKGYEGFVLT
B2: PAMO (phenylacetone monooxygenase; PAMOWT, PAMOHPCD, PAMOHPED) (Thermobifida fusca YX; A442P/L443C/P440F/P94D/Q93N/S441H/S444D) (protein)
chain: B1 chain with Q93N, P94D, P440F, S441H, A442P, L443C, S444D
B3: PAMO (phenylacetone monooxygenase; PAMOWT, PAMOHPCD, PAMOHPED) (Thermobifida fusca YX; A442P/L443E/P440F/P94D/Q93N/S441H/S444D) (protein)
chain: B1 chain with Q93N, P94D, P440F, S441H, A442P, L443E, S444D

Columns and labels:
purified protein [1] = substrate: NC(=O)C1=CN([C@@H]2O[C@H](COP(=O)(O)OP(=O)(O)OC[C@H]3O[C@@H](n4cnc5c(N)ncnc54)[C@H](OP(=O)(O)O)[C@@H]3O)[C@@H](O)[C@H]2O)C=CC1; test: purified protein; type: biochemical, Thermobifida fusca; conditions: 50 mM phosphate pH 8.0, 1 µM enzyme, NADPH varied 5.0-500 µM, varied: cofactor
purified protein [2] = substrate: c1ccc2[nH]ccc2c1; test: purified protein; type: biochemical, Thermobifida fusca; conditions: 50 mM phosphate pH 8.0, 1 µM enzyme, indole varied 0.05-1 mM, NADPH fixed at saturating concentration
[3] = indole fixed at saturating concentration (wild type does not use indole; NADPH depletion control)
[4] = indole fixed at saturating concentration

Protein | Km (purified protein [1]; [3]) [µM] | kcat (purified protein [1]; [3]) [s⁻¹] | kcat/Km (purified protein [1]; [3]) [M⁻¹ s⁻¹] | Km (purified protein [1]; [4]) [µM] | kcat (purified protein [1]; [4]) [s⁻¹] | kcat/Km (purified protein [1]; [4]) [M⁻¹ s⁻¹] | Km (purified protein [2]) [µM] | kcat (purified protein [2]) [s⁻¹] | kcat/Km (purified protein [2]) [M⁻¹ s⁻¹]
B1 | 0.9 | 4.8 | 5.2e+06 | – | – | – | – | – | –
B2 | – | – | – | 7.6 | 6.8 | 900000 | 58.2 | 5.4 | 93000
B3 | – | – | – | 4.4 | 1.9 | 430000 | 109.0 | 1.7 | 16000
